In US20210188969A1, “ANTIBODIES THAT BIND INTERLEUKIN-2 AND USES THEREOF” (published 2021):

T1: rat IL-2 (rat, UniProt P17108)
T1 sequence: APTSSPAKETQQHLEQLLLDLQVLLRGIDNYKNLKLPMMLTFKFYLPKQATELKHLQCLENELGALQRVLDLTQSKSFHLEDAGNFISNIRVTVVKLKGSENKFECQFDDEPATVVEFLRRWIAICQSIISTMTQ

B1: XPA.92.019 (antibody, V domains shown)
VH: EVQLVESGGGLVQPGRSLRLSCAASGFTFSYYGMHWVRQAPGKGLEWVADISNDGSNKYYADSVKGRFTISRDNSKTTLYLQMNSLRPEDTAVYYCATPYYDSSGLDYWGQGTLVTVSS
VL: SYELTQPPSVSVSPGQTARITCSGDALPKRFAYWYQQKAGQAPVLVIYEDNKRPSGIPETLSGSSSGTTATLTISGAQEEDEADYYCYSTDNTGGLWVFGGGTKLTVLG
B2: XPA.92.099 (antibody, V domains shown)
VH: QVQLVESGGGLVKPGRSLRLSCAASGFTFNRYAMSWVRQAPGKGLEWVAMISFDGGNQYYTDSVSGRFTISRDNSKTTLFLQMDSLRTEDTAVYYCVRSPAGDWVAYFDYWGQGTLVTVSS
VL: DIQMTQSPSSLSASIGDRVTIPCQASEDISNHLSWYQQKPGKAPKPLIFDASDLETGVPSRFSGSGSGTDFALTISSLRPDDFATYYCHQYHDYPSYTFGHGTKLEIKR
B3: XPA.92.042 (antibody, V domains shown)
VH: EVQLVQSGTEVKKAGDSLKISCKGSGYNFDTYWIGWVRQMPGRGLEWMGTIYPADSDTRYSPSFQGQVTMSADKSISTAYLQWGSLRASDTAMYYCARFSSSAYDIWGQGTMVTVSS
VL: SYELTQPPSVSVSPGQTARITCSGDALPRKFAYWYQQKSGQAPVLVIYQDTKRPSGIPERFSGSSSGTTVTLTISDVQAEDDADYYCQSADRSDSYVFGAGTKLTVLG

Columns and labels:
[1] = target: mouse IL-2 Rβγ on mouse primary NK cells (mouse) (UniProt P16297)
[2] = target: recombinant human IL-2 (human) (UniProt P60568)
[3] = target: recombinant human IL-2 (human) (UniProt P60568); remark: listed apart in the source
[4] = target: recombinant human IL-2 (human) (UniProt P60568); remark: listed apart in the source
[5] = target: recombinant human IL-2 (human) (UniProt P60568); remark: listed apart in the source
[6] = target: recombinant human IL-2 (human) (UniProt P60568); remark: listed apart in the source
[7] = target: recombinant human IL-2 (human) (UniProt P60568); remark: listed apart in the source
[8] = target: recombinant human IL-2 (human) (UniProt P60568); remark: listed apart in the source
[9] = target: recombinant human IL-2 (human) (UniProt P60568); remark: listed apart in the source
[10] = target: T1, rat IL-2; experiment: SPR (Biacore 4000), antibody captured on anti-human IgG Fc, IL-2 30 nM to 1 nM; affinity estimate
Description: Antibody affinities were measured by SPR using the Biacore 4000 with a standard capture methodology. Briefly, anti-human IgG (Fc specific) from an anti-human antibody capture kit (Biacore) was immobilized onto spots 1, 2, 4, and 5 of all four flow cells of a CM-5 sensor chip by amine coupling according to the manufacturer's instructions. Running buffer was HBS-EP+ with 1% BSA. […] Data were analyzed using the Biacore 4000 Evaluation software.
These sequences were imported into vector NTI® (Lifetech) and aligned using the alignx tool.

Molecule | EC50 of IL-2-induced phosphorylation of STAT5a,b, mouse primary NK cells, IL-2 pre-complexed with 100 nM antibody [1] [nM] | fold right-shift in EC50 of IL-2-induced CD69 on Tregs, IL-2 pre-complexed with 200 nM antibody [2] [fold] | fold EC50 shift of IL-2-induced proliferation, CTLL-2 (muRαβγ) [3] [fold] | fold EC50 shift of IL-2-induced proliferation, BaF3/IL-2 HuRβγ [4] [fold] | fold EC50 shift of IL-2-induced proliferation, NK92 (huRαβγ) [4] [fold] | fold EC50 shift of IL-2-induced pSTAT5a,b, Human Primary NK cells (huRβγ) [5] [fold] | fold EC50 shift of IL-2-induced pSTAT5a,b, NK92 (huRαβγ) [5] [fold] | fold EC50 shift of IL-2-induced pSTAT5a,b, CTLL-2 (muRαβγ) [6] [fold] | fold EC50 shift of IL-2-induced pSTAT5a,b, Mouse Primary NK cells (muβγ) [6] [fold] | fold shift in EC50 of IL-2-induced phosphorylation of STAT5a,b, NK-92 cells, relative to isotype control [7] [fold] | fold right-shift in EC50 of IL-2-induced CD69 on CD56bright NK cells, IL-2 pre-complexed with 200 nM antibody [8] [fold] | EC50 of IL-2-induced phosphorylation of STAT5a,b, mouse primary NK cells, with isotype control [9] [nM] | EC50 of IL-2-induced phosphorylation of STAT5a,b, NK-92 cells, with isotype control [7] [nM] | fold shift in EC50 of IL-2-induced CD69 on Tregs, IL-2 pre-complexed with 200 nM antibody [2] [fold] | Kd [10] [nM]
IL-2/MAB602 complex (from UniProt P60568) | 0.361 |  |  |  |  |  |  |  |  |  |  |  |  |  | 
MAB602 (antibody) |  | 5 to 10 | 18 | 1.2 | 15 | 10 | 959 | 227 | 3 | 1000 | 5 to 10 |  |  |  | 
isotype control (anti-KLH) (antibody) |  |  |  |  |  |  |  |  |  |  |  | 0.116 | 0.0009 |  | 
B1 |  |  | 130 | 5.2 | 33 | 40 | 966 | 523 | 15 |  |  |  |  | 10 to 15 | > 1000
B2 |  |  | 54 | 2.4 | 22 | 24 | 495 | 293 | 17 |  |  |  |  |  | 
B3 |  |  | 156 | 5 | 52 | 41 | 1860 | 793 | 14 |  |  |  |  |  | 
